In patent US20260069707A1, “COMBINATION THERAPY WITH ANTIBODY-DRUG CONJUGATES AND HYALURONIDASES” (HALOZYME, INC., priority 2024, published 2026):
Values joined by “and” are separate entries in the source; they are usually repeats but may differ in a detail not shown here. Equal entries are not always repeated.

Test: Enhertu analytes (TAB, TADC, free payload) in skin tissue homogenates of injection site
Assay type: in vivo, Yucatan miniature pig (Sus scrofa domestica)
Conditions: for Free Payload Result / TADC/TAB Ratio / Total Antibody Result: skin injection site homogenate, individual sites; for TADC/TAB ratio in tissue homogenates / Concentration of free payload in tissue homogenates of injection site / Concentration of total ADC (TADC) in tissue homogenates of injection site / Concentration of total antibody (TAB) in tissue homogenates of injection site / AUC(1-7), free payload in tissue homogenates of injection site / AUC(1-7), total ADC (TADC) in tissue homogenates of injection site / AUC(1-7), total antibody (TAB) in tissue homogenates of injection site / Cmax, free payload in tissue homogenates of injection site / Cmax, total ADC (TADC) in tissue homogenates of injection site / Cmax, total antibody (TAB) in tissue homogenates of injection site: skin
Protocol: Porcine serum was used as surrogate matrix to prepare calibration standards and quality controls for skin sample quantitation. Untreated blank porcine skin was provided for preparation of monitoring quality controls. The porcine skin was homogenized at an approximate ratio of 0.5 mL of buffer for every 100 mg of skin. […] The monitoring controls were analyzed during the method performance evaluation. The following were selected for monitoring in the assay (Table 83).
Porcine serum was used as surrogate matrix to prepare calibration standards and quality controls for the quantitation of skin samples. […] The porcine skin was homogenized at an approximate ratio of 0.5 mL of buffer for every 100 mg of skin. […] These were analyzed during the method performance evaluation.
This sample was divided vertically into two identical pieces. One skin sample was placed into a pre-weighed cryogenic tube and its weight was recorded then stored on dry ice prior to transfer to ≤−70° C. The other skin sample was processed for potential future histological assessment into OCT freezing media and frozen on dry ice.
Animals received two SC doses on their lower abdominal region.
Two cohorts were included in the follow-on study. […] Each animal had two full thickness skin biopsies taken post-mortem using a 12 mm punch. This sample was divided vertically into two identical pieces. One skin sample was placed into a pre-weighed cryogenic tube and its weight was recorded, then stored on dry ice prior to transfer to ≤−70° C. The other skin sample was processed into OCT molds for potential future histological assessment.
Tissue lysates were prepared based upon the weight of the sample at a ratio of 0.2 g/mL homogenization buffer (Tables 81 and 82). The total protein concentration of each homogenate was determined by BCA assay. The concentration of the total ADC (TADC), total antibody (TAB) and free payload (deruxtecan) in each sample was then normalized to the protein concentration and reported in μg analyte per mg total protein.
In this study, six animals were used. […] Two cohorts were included in this study. Cohort 1 was euthanized 24 hours after treatment, while Cohort 2 was euthanized 48 hours after exposure to the two test solutions.

[1] = 24 hours after SC administration
[2] = 48 hours after SC administration
[3] = SC, day 1, individual animal, listed as ADC
[4] = SC, day 2, individual animal, listed as ADC
[5] = SC, day 7, individual animal, listed as ADC
[6] = SC, individual series, listed as ADC
[7] = SC, 24 h post-injection, individual animal, listed as ADC
[8] = SC, 48 h post-injection, individual animal, listed as ADC
[9] = SC, 168 h post-injection, individual animal, listed as ADC

Sacituzumab govitecan [Trodelvy]
Mean ADC in minipig skin [1]: 24.21
Mean antibody (Ab) in minipig skin [1]: 27.65
Mean payload in minipig skin [1]: 0.02
Mean ADC in minipig skin [2]: 6.92
Mean antibody (Ab) in minipig skin [2]: 7.97
Mean payload in minipig skin [2]: 0.00
Mean skin concentration, Free Payload (SC, 24 h post-injection): 0.02 μg/mg protein
Mean skin concentration, Total ADC (TADC) (SC, 24 h post-injection): 24.21 μg/mg protein
Mean skin concentration, Total Antibody (TAB) (SC, 24 h post-injection): 27.65 μg/mg protein
Mean skin concentration, Free Payload (SC, 48 h post-injection): 0.0042 μg/mg protein
Mean skin concentration, Total ADC (TADC) (SC, 48 h post-injection): 6.92 μg/mg protein
Mean skin concentration, Total Antibody (TAB) (SC, 48 h post-injection): 7.97 μg/mg protein
Mean skin concentration, Free Payload (SC, 168 h post-injection): 0.0004 μg/mg protein
Mean skin concentration, Total ADC (TADC) (SC, 168 h post-injection): 0.57 μg/mg protein
Mean skin concentration, Total Antibody (TAB) (SC, 168 h post-injection): 0.73 μg/mg protein
Concentration of free payload in the skin of minipigs [3]: 0.026 ug/mg protein and 0.020 ug/mg protein and 0.011 ug/mg protein
Total ADC concentration in the skin of minipigs [3]: 38.48 ug/mg protein and 22.00 ug/mg protein and 12.15 ug/mg protein
Total antibody concentration in the skin of minipigs [3]: 44.05 ug/mg protein and 22.63 ug/mg protein and 16.28 ug/mg protein
Concentration of free payload in the skin of minipigs (SC, day 1, mean): 0.02 ug/mg protein
Total ADC concentration in the skin of minipigs (SC, day 1, mean): 24.21 ug/mg protein
Total antibody concentration in the skin of minipigs (SC, day 1, mean): 27.65 ug/mg protein
Concentration of free payload in the skin of minipigs [4]: 0.003 ug/mg protein and 0.005 ug/mg protein (2×)
Total ADC concentration in the skin of minipigs [4]: 5.97 ug/mg protein and 6.98 ug/mg protein and 7.80 ug/mg protein
Total antibody concentration in the skin of minipigs [4]: 7.70 ug/mg protein and 8.07 ug/mg protein and 8.14 ug/mg protein
Concentration of free payload in the skin of minipigs (SC, day 2, mean): 0.00 ug/mg protein
Total ADC concentration in the skin of minipigs (SC, day 2, mean): 6.92 ug/mg protein
Total antibody concentration in the skin of minipigs (SC, day 2, mean): 7.97 ug/mg protein
Concentration of free payload in the skin of minipigs [5]: 0.001 ug/mg protein and 0.000 ug/mg protein (2×)
Total ADC concentration in the skin of minipigs [5]: 0.69 ug/mg protein and 0.48 ug/mg protein and 0.55 ug/mg protein
Total antibody concentration in the skin of minipigs [5]: 0.68 ug/mg protein and 0.72 ug/mg protein and 0.79 ug/mg protein
Concentration of free payload in the skin of minipigs (SC, day 7, mean): 0.00 ug/mg protein
Total ADC concentration in the skin of minipigs (SC, day 7, mean): 0.57 ug/mg protein
Total antibody concentration in the skin of minipigs (SC, day 7, mean): 0.73 ug/mg protein
AUC1-7, free payload in skin [6]: 0.024 ug*day/mL (2×) and 0.021 ug*day/mL
AUC1-7, total ADC in skin [6]: 38.87 µg·days/mL and 33.14 µg·days/mL and 30.85 µg·days/mL
AUC1-7, total antibody in skin [6]: 46.85 µg·days/mL and 37.33 µg·days/mL and 34.52 µg·days/mL
Cmax, free payload in skin [6]: 0.026 µg/mL and 0.020 µg/mL and 0.011 µg/mL
Cmax, total ADC in skin [6]: 38.48 µg/mL and 22.00 µg/mL and 12.15 µg/mL
Cmax, total antibody in skin [6]: 44.05 µg/mL and 22.63 µg/mL and 16.28 µg/mL
AUC1-7, free payload in skin (SC, mean): 0.02 µg·days/mL
AUC1-7, total ADC in skin (SC, mean): 34.29 µg·days/mL
AUC1-7, total antibody in skin (SC, mean): 39.57 µg·days/mL
Cmax, free payload in skin (SC, mean): 0.02 µg/mL
Cmax, total ADC in skin (SC, mean): 24.21 µg/mL
Cmax, total antibody in skin (SC, mean): 27.65 µg/mL
ADC/Ab ratio, mean AUC1-7 (minipig skin, SC): 87%
ADC/Ab ratio, mean Cmax (minipig skin, SC): 88%
ADC/Payload ratio, mean AUC1-7 (minipig skin, SC): 147791%
ADC/Payload ratio, mean Cmax (minipig skin, SC): 128404%
Free Payload Result (SC, 24 h, listed as ADC): 124000 pg/mL and 67800 pg/mL and 138000 pg/mL
TADC/TAB Ratio (SC, 24 h, listed as ADC): 0.97 and 0.75 and 0.87
Total Antibody Result (SC, 24 h, listed as ADC): 143 µg/mL and 97.8 µg/mL and 237 µg/mL
Free Payload Result (SC, 48 h, listed as ADC): 21700 pg/mL and 29500 pg/mL and 33800 pg/mL
TADC/TAB Ratio (SC, 48 h, listed as ADC): 0.77 and 0.86 and 0.96
Total Antibody Result (SC, 48 h, listed as ADC): 50.2 µg/mL and 51.7 µg/mL and 58.1 µg/mL
Free Payload Result (SC, 168 h, listed as ADC): 3320 pg/mL and 2240 pg/mL and 3520 pg/mL
TADC/TAB Ratio (SC, 168 h, listed as ADC): 1.00 and 0.67 and 0.70
Total Antibody Result (SC, 168 h, listed as ADC): 4.43 µg/mL and 4.86 µg/mL and 5.80 µg/mL
TADC/TAB ratio in tissue homogenates (SC, 24 h post injection, individual animal, listed as ADC): 0.87 and 0.97 and 0.75
TADC/TAB ratio in tissue homogenates (SC, 24 h post injection, mean): 1.14
Concentration of free payload in tissue homogenates of injection site [7]: 0.026 μg/mg protein and 0.020 μg/mg protein and 0.011 μg/mg protein
Concentration of total ADC (TADC) in tissue homogenates of injection site [7]: 38.48 μg/mg protein and 22.00 μg/mg protein and 12.15 μg/mg protein
Concentration of total antibody (TAB) in tissue homogenates of injection site [7]: 44.05 μg/mg protein and 22.63 μg/mg protein and 16.28 μg/mg protein
Concentration of free payload in tissue homogenates of injection site (SC, 24 h post-injection, mean): 0.02 μg/mg protein
Concentration of total ADC (TADC) in tissue homogenates of injection site (SC, 24 h post-injection, mean): 24.21 μg/mg protein
Concentration of total antibody (TAB) in tissue homogenates of injection site (SC, 24 h post-injection, mean): 27.65 μg/mg protein
TADC/TAB ratio in tissue homogenates (SC, 48 h post injection, individual animal, listed as ADC): 0.78 and 0.86 and 0.96
TADC/TAB ratio in tissue homogenates (SC, 48 h post injection, mean): 1.15
Concentration of free payload in tissue homogenates of injection site [8]: 0.003 μg/mg protein and 0.005 μg/mg protein (2×)
Concentration of total ADC (TADC) in tissue homogenates of injection site [8]: 5.97 μg/mg protein and 6.98 μg/mg protein and 7.80 μg/mg protein
Concentration of total antibody (TAB) in tissue homogenates of injection site [8]: 7.70 μg/mg protein and 8.07 μg/mg protein and 8.14 μg/mg protein
Concentration of free payload in tissue homogenates of injection site (SC, 48 h post-injection, mean): 0.00 μg/mg protein
Concentration of total ADC (TADC) in tissue homogenates of injection site (SC, 48 h post-injection, mean): 6.92 μg/mg protein
Concentration of total antibody (TAB) in tissue homogenates of injection site (SC, 48 h post-injection, mean): 7.97 μg/mg protein
TADC/TAB ratio in tissue homogenates (SC, 168 h post injection, individual animal, listed as ADC): 1.01 and 0.67 and 0.70
TADC/TAB ratio in tissue homogenates (SC, 168 h post injection, mean): 1.27
Concentration of free payload in tissue homogenates of injection site [9]: 0.001 μg/mg protein and 0.000 μg/mg protein (2×)
Concentration of total ADC (TADC) in tissue homogenates of injection site [9]: 0.69 μg/mg protein and 0.48 μg/mg protein and 0.55 μg/mg protein
Concentration of total antibody (TAB) in tissue homogenates of injection site [9]: 0.68 μg/mg protein and 0.72 μg/mg protein and 0.79 μg/mg protein
Concentration of free payload in tissue homogenates of injection site (SC, 168 h post-injection, mean): 0.00 μg/mg protein
Concentration of total ADC (TADC) in tissue homogenates of injection site (SC, 168 h post-injection, mean): 0.57 μg/mg protein
Concentration of total antibody (TAB) in tissue homogenates of injection site (SC, 168 h post-injection, mean): 0.73 μg/mg protein
AUC(1-7), free payload in tissue homogenates of injection site [6]: 0.024 ug*day/mL (2×) and 0.021 ug*day/mL
AUC(1-7), total ADC (TADC) in tissue homogenates of injection site [6]: 38.87 µg·days/mL and 33.14 µg·days/mL and 30.85 µg·days/mL
AUC(1-7), total antibody (TAB) in tissue homogenates of injection site [6]: 46.85 µg·days/mL and 37.33 µg·days/mL and 34.52 µg·days/mL
Cmax, free payload in tissue homogenates of injection site [6]: 0.026 µg/mL and 0.020 µg/mL and 0.011 µg/mL
Cmax, total ADC (TADC) in tissue homogenates of injection site [6]: 38.48 µg/mL and 22.00 µg/mL and 12.15 µg/mL
Cmax, total antibody (TAB) in tissue homogenates of injection site [6]: 44.05 µg/mL and 22.63 µg/mL and 16.28 µg/mL
AUC(1-7), free payload in tissue homogenates of injection site (SC, mean): 0.02 µg·days/mL
AUC(1-7), total ADC (TADC) in tissue homogenates of injection site (SC, mean): 34.29 µg·days/mL
AUC(1-7), total antibody (TAB) in tissue homogenates of injection site (SC, mean): 39.57 µg·days/mL
Cmax, free payload in tissue homogenates of injection site (SC, mean): 0.02 µg/mL
Cmax, total ADC (TADC) in tissue homogenates of injection site (SC, mean): 24.21 µg/mL
Cmax, total antibody (TAB) in tissue homogenates of injection site (SC, mean): 27.65 µg/mL
